Measurements from the DeepSol protein solubility set.

Test: soluble on expression in E. coli; label from the status in PepcDB or PDB records

Soluble on expression in E. coli, not soluble:
MGSDKIHHHHHHMNQVTTYLWETHLPGGSHWSGVVRRGTTLRLTDVSGGANAAVLFYNLEEKLERYNMADTLKTQHTFCLTKGHACHSDMGRIFCCITEDTAGWHDTVCGLSDAELIQQKYGTGRYQELRNDMYRNGLDGMLVELGKWGLGRRDVVSNINFFSKVTANSVGELQFHVSHSKAGDHVDLAFAMDTLVVLSAAPHPLDPAATYRPGAVNLAVFPSTPAVTGACAHIAENARGLENTRRLYAYGGVK
MGSDKIHHHHHHMNRLKKLAWGELFMLGKQGKVRYVFTSSNTAGGYCSFMPELLAGLQKIFILKGPAGTGKSSFLRLLGQSMAEQGYEVEVWLSALNPLNPEGIYLPQMEAAVVNGSLPITIDPGYPAGRAEIINLEDYRDRKAAAEKGRDILELVQRVEKHHSKAYNILKSVIQTREELRQLSARHLDNSKFNQIFQELEARLAEEEVRERHYFANAVTADGIISYIEELSTPCRKRYIFKGPEGCGKSTMIAELARKAAEKGQFLEYYHSGLEPERLLMVIISSSQTALIDIGEMEINLKPCDLLVDLGKCLSDYDCSLLGMKNSQVYRNHEAMLLQVQDELENACLAVKKIKKINASFMDYDSIDKKRMEIEQELGSELSKCFCNGIESGL
MGSDKIHHHHHHMNRMNDALELVKKLRTFLPAESVLHETEDVRPYECDGLSAYRQTPMIVALPRTEDEVAGILKICDALKIPVVARGAGTGLSGGALPHPQGVLLSLAKLKNILEIDPAARTARVQPGVRNLAISEAAAPYGLYYAPDPSSQIACSIGGNVAENSGGVHCLKYGLTVHNILKLRVLTIEGELLEMGADGLDAPGYDLLALMTGSEGMLGIVTEVTVKLTPRPEKAQVVLASFDDIRDAGNAVANVIGAGIIPAGMEMMDKITTGAVEEYVHAGYNVEAAAILLCESDGAEEEVAEEIERINEIMRQSGATEVRISRDEAERARFWAGRKAAFPAAGRVSPDYYCMDGTIPRKNLASVLTGIEALSAEYGLRCMNVFHAGDGNLHPLILYDANHPGELELTEEFGAKILRMCIEAGGTITGEHGVGIEKINQMCSQFKTGELEMFHAVKAAFDPASLLNPGKAIPTLRRCAEQGAMHVHRGKEKFPELPRF
MGSDKIHHHHHHMNRVISVGFEHPKSYLDSNQSVEAKSRIDSYIDKKMDEWNKEVVYAKHLYEPSVNKEYYKRHMIEHVWRIRMSRTVQAKALHQIAKISPEAAQLYARYQDEEMLHDILFKQDALALGVTEDTIKNTEPMFATRLLMGFKYFVAEHENPLGAVAYSYLVEYVTAKITPDQVSNLKSELGSENIKGQVAHINTDLSHDHSGDMWEIVRALLFTESDIEMFIKYIDEIQDLLAMYFKELYEKTIAKNESQAA
MGSDKIHHHHHHMNSFLDSVCALLEQGEDVVIVTIAMQSGSTPRESGAKMAVRRDGSILGTVGGGLMEAGCMELGREMLTGRFASSAAESGPELAVIRHFDLSNEEAAKAAMVCGGRLTVVAEHIQAGRRGAEVLCAARDSLLQGKACGLETTMERLEHTAAATREACFAVTGRKTPDCGHAAPAAASATLDCDGKTCRFTEWLQPSPRMIIFGAGHVALPTAAMASMTGFAVTVLDDREEFASPQRFPQARTVVLPDFGQAFAQLTITPQCYVVIMTRGHLHDKTVLEQALKTPACYVGMIGSRRKRDALYDQLRSEGVDESSIARCHCPIGLEIGARTPEEIAVSIMAEIIACRAAGNGDGAS
MGSDKIHHHHHHMNTANPEQALAMSQAKLLCDTMSTLAESPVWDERRQVLFWCDILGKTVRSAALEPGQYREWPFPHTVSSLGLRENGDLVVACGMDIVILDPDSGRTRLLHSIPAPEGIPCRLNDGRVGPDGAFWVGTMHNVPLSEMKPYGELWRITATSAKRMQTGLTCPNGLAFSPDGSIMWQSDSVQKWIRRRNFYRVNGLFDEGVLVAQMTEETGRPDGGCLDSSGTYYSAGVSAGMLNVFAEDGGKQTAAIKMPVPHPTMPCFGGPDFSTLFVTSHRHNMSAERLEQAPFSGGVWMIPTQTKGFAPFRFEG
MGSDKIHHHHHHMNTDDILFSYGEEDIPLKALSFPIFETTNFYFDSFDEMSKALRNGDYEFVYKRGSNPTTRLVEKKLAALEECEDARLVASGMSAISLSILHFLSSGDHVVCVDEAYSWAKKFFNYLSKKFDIEVSYVPPDAERIVEAITKKTKLIYLESPTSMRMKVIDIRKVTEAAGELKIKTVIDNTWASPIFQKPKLLGVDVVVHSATKYISGHGDVMAGVIAGDVEDMKNIFVDEYKNIGPVLSPIEAWLILRGLRTLELRMKKHYENALVVSDFLMDHPKVLEVNYPMNPRSPQYELASSQMSGGSGLMSFRLKTDSAEKVKEFVESLRVFRMAVSWGSHENLVVPRVAYGDCPKKDVNLIRIHVGLGDPEKLVEDLDQALKKI
MGSDKIHHHHHHMNTIYNTLRTDKGYKVYEGYLYEITGEECEEALDLVIPKNIVFADTDTCGYTFLLNEDGTVYDDVTFYKFDDKYWLASHKALDSYLDNINFDYTVTDISDEYKMLQIEGRYSGEIAQSFYEYDISTLNFRTLIEMTYKGEKGYLARFGFSGEFGYQFFLPSSIFATFVSDVCEGIAEYGDELDRYLRFEVGQPITDIYQQEEYSLYEIGYSWNLDFTKEEFRGRDSLLEHIRSATVKSVGFSTKEKLASGTPVLFDDQIVGKIFWIADEKDSSENYLGLMIVNQTYAHSGVTFVTEDGQILKTQSSPYCIPESWNKE
MGSDKIHHHHHHMNTLVDAGFSPRREGFAPQPLIEALLSILPAHCVLHREEDTRPYECDGLSLYRALPAVVALPEDEAQVRAIMQLCKRMNVPIVARGAGTGLSGGAMPHAQGVLLGLSKLNRIKRIDPAGGTAVVEPGVRNLAISEAAAPYGLYYAPDPSSQIACSIGGNVAENSGGVHCLKYGLTVHNVLRVRVVTIDGEIVELGSEAPDAPGLDLLSVFVGSEGMLGVVTEITVKLIPSPACAQVVMASFASVEAAGNAVTQIIAAGLIPAGLEMMDRQAVHMVEPFVQAGYDLQAQAILLCEADGTPQEVAHEVAMMEAVFKRAGATSLQVSGSEAERLRFWAGRKNAFPAAGRVSPDYYCMDGTIPRRHLARVLGAIEQMEDDFGLRCANVFHAGDGNLHPLILFDSNKPDEVERAEKFGAAILELCVQVGGTVTGEHGVGMEKINQMCVQFSRDELDAFLAVKRAFDPPGLLNPEKVIPTLARCAEYGKMHVHAGEMRFPDLARF
MGSDKIHHHHHHMNTNQLIEAFRKFLPAEAILHEAEDLRPYECDALSAYRQLPMIVVLPRTEAEIAAILQTCQAERIPVVARGSGTGLSGGALPHAEGVLLSLARLNHILEIDPAAGTARVQPGVRNLAISEAAAYYGMYYAPDPSSQIACSIGGNVAENSGGVHCLKYGLTVHNILRLRVLTIEGDLLEIGADALDSPGFDLLALMTGSEGMLGIVTEITVRLLPKPETVKLVMAVFDDVRKAGEAVASVIQAGIIPAGMEMMDKITIHAVEDFVHAGYDLEGAAILLCESDGMAEEVADEIERIRTILQASGATRISLAQDEAERQRFWAGRKAAFPAAGRVSPDYYCMDGTIPRKHLAHVLEQIEQLSAEYGLRCMNVFHAGDGNLHPLILYDANQPGELQKAEAFGARILEICIEAGGSLTGEHGVGIEKLNQMCLQFNDAERNRFHAIKAAFDPQSLLNPGKAIPELHRCAEFGAMHIHRGAEKFPEIPRF
MGSDKIHHHHHHMNTSGDRLRILLRECHLTATDFAANRKITPQHVNNWFKRGVPMARIDEVAELLTVNARWLRSGDGPKHPNESANENTGDDKRMAIQQTRNVLRGDVEIQIYMEVESPHGVGKTVLSEAPGQKIRLPLQVLQTMGIDPKNCMCVAMVGNSMADKIQDGSILGVDRELTQVIDGEIYALEHGGILRVRYLYRLPNGGLRLRSHNDAEYPDEVFSGEDIAREKIRILGWIFWWSTLNSRRNAMLLL
MGSDKIHHHHHHMNVFPADRIEAMHDAGLDILERLGIKVLLPEARAIFATAGAMVKDDMVYIGRDIVEASLASAPRRIEGRAGAPERDVVLELGSLVFQPGAGAPHATDEVRGRRPGCARDFKELIQLTNHFDVFHMLPPLVEPQDIATNIRHYFTLECQLTESNKFPFIFSRGTPQVTESFEMLRDFRGLSDAEFEAEPRCYTIINTNSPRTLDVPMAQGLIDFARMGQISIVTPFTLMGAMAPITVAGAITLSHAEALAAITLTQLTNPGAPVCYGTFTSNVDMKSGAPAFGTPSHFQASLAAGQLARHIGLPWRSAAGSAANLNDVQAANENQFGLWGCLMAGATVVIHSAGWLEGGLSISYEKLITDAEVLNMVAELCAGAQASDAEIGLDAIEDTAPSGHFFATAQTMARYQTEFYEPIIHDYANFGTWTERGSKDASTRARDVWQGILADPKSPTVNGDRLSALQDDIARRTQAGGAYPES
MGSDKIHHHHHHMNVPFPKRDHGGGLDAAAAEYGGDLEAWLDLSTGINPNAYPVGQLPQDIWGRLPDEGAMARLLDAARSFWSVPDGVEVIAAAGASPLIARMPDMTAFSGAYIPVPTYNEYAAAFAARGRLNDPLNPQNPVHVYVHPNNPDGRMWPGSVIGGRPLTIIDESFCDTVPDKTHMARAAEPGVIILKSFGKFWGLAGLRLGFAIAAPETFARSSSSASLQELMGPWSVSGPALEIGARALQDHAWAEATRVRLGHDAARLDDMLLSAGAEIVGGTTLFRTYAWEQGAEVWQKRLAEHRIWSRIFPYSTNWMRLGLPATDEDWARLDAAL
MGSDKIHHHHHHMNWDNARFFLALARTGTLRGAAAQLNVDQATVGRRIAALEDELSARLFLRTPALYVLTTAGEALLEPAETMERASLTIERRVMGLDEQLAGTVRIATTDSLGKRFVIPAIARLRRRHAGIDVVCVTSTEIANLTRREADLAIRTLRPESPDLIVRRLGHLETGIYASRHYLAERGEPVAGSAFDGHDLVMYQQPVMPTMWDALCGEPTSRGRVMFQTSSTMMLVEAALAGLGIAELPCFRAEAEPELVRLMARRCNHFDVWLVAHADLYKTARVQAVIEAVVEEFATAAPSTR
MGSDKIHHHHHHMNYSHFVGLDVGKKTFDASLMSADEKELSHKSFDNTPTGIQSLLDWIAGYHLSLSKLLFCAENMGSYVTELSVSSVSMGFSLALVCPLTIKKSIGLQRGKNDRIDAKRIANYAVLHYRKLELYKLPDKDLVRLRGWIIIRDNLVKQKVSSIKLLETFSWMAKLADVTESISFLEEQLKSIKERILEVEEDMEQLIAASTSLYTNYLLLRSIKGIGIINAIVLLCVTDNFQRFDNPRKFACYCGVAPFEHTSGISIRGKTQTSSLANKEVKVYLTRAAITAISWDPQMKAYYKRKIAEGKHKASVINAVRAKIIARSFAVIRRQTPFVTLAV
MGSDKIHHHHHHMPAALPIKPPFKPRDISIVGAGVAGASLALSLLRRGHKVTLYCADAAPGIGASGNRQGAIYPLLTPEDDHLTRLFVPAFLYAKRFVESLAHHPLPFDFCGVLQTGHDERATERIEKLLSKTWPKQVAVRVDADEANHIAGVAIDKGGIYYPQGGWVSPAKLCEAAIEEAKTMGLECHFDVNITSITRADEGWRLNTQTGEIDAHELVLATGHRITELAQTKSLQLAPFRGQVSHVPTRGKLEQLKTVLCAHGYFTPRDASSGSHCMGASYVRGDTSVEYREQEQQENLHKMQESYPGKDWVEYLDISEGSARAGIRMVSRDHLPMAGAAPDVAAIQTQYQAIGHGPKGAQYWQTHAAPVHPGLYIFSGLGSRGLSSGPLIAECLADSLSGTLPVLDGDVMEALNPNRMWLRKLKKGKALD
